Assay results from PMC4577447.

Molecular target: transcription elongation complex
Assay: single-molecule fluorescence co-localization

- ka (apparent first-order association rate constant at 0.5 nM GreB): 0.0149 s⁻¹
B1: GreB (natural protein)
chain: MKTPLVTREGYEKLKQELNYLWREERPEVTKKVTWAASLGDRSENADYQYNKKRLREIDRRVRYLTKCLENLKIVDYSPQQEGKVFFGAWVEIENDDGVTHRFRIVGYDEIFGRKDYISIDSPMARALLKKEVGDLAVVNTPAGEASWYVNAIEYVKP
modifications: fluorescent dye label: Cy3 (Figure 5) or Cy3B (Figure 6); position not stated
